B1: CC7: human-specific anti-tau clone, Table 10; SEQ ID NO: 365 (protein)
scFv: QVQLQESGPSLVKPSQTLSLTCTVSGFSLTSNAVIWVRQAPGKAPEWVALIDVDGDAAYDPALKSRLSITRDTSKSQVSLSLRSVTTEDTAVYYCARDYGSWGYVSDIDYWGPGLLVTVSSEGKSSGASGESKVDDRVVRTQPSSVSGSLGQRVSITCSGSYITGSSVGWFQQVPGSGLKTVIYDNNDRPSGVPDRFSGSKSGDTATLTISSLQAEDEADYYCASYDTSNIGLFGSGTRLTVLG
modifications: CC7 amino acid sequence
B2: 3aH6: N-terminal anti-tau clone, Table 6; SEQ ID NO: 423 (protein)
chain: QVQLQESGPSLVKPSQTLSLTCTVSGFSLSSNGVGWVRQAPGKVPEWLGDISSVGKKYANPALKSRLSFTRDTSKSQVSLSLSSVTTEDTAVYYCVKCRDGGVTYGYDIDYWGPGLLVTASSEGKSSGASGESKVDDQAVVTQPSSVSGSLGQSVSITCSGSSGNVGYGDYVSWFQQFHGSAPKLLIYGATNLASGVPARFSGSRSGNTATLTISSLHAEDEADYYCASYDSSSGGVFGSGTRLTVLG
modifications: 3aH6 amino acid sequence
B3: 3bG4: N-terminal anti-tau clone, Table 6; SEQ ID NO: 425 (protein)
chain: QVQLQESGPSLVKPSQTLSLTCTISGFSLISNGVGWVRQAPGKVPEWVGDIASSGKAYSNPALKSRLSITRDTSKSQVSLSLRSVTTEDTAVYYCVRCRDGGVTYGYDIDYWGPGLLVTVSSEGKSSGASGESKVDDQAVLTQPSSVSKSLGQSVSITCSGSTSNVGSGNDVSWFQQVPGSAPKLLFYGATNRASGVPDRFSGSRSGNTATLTITSLQAEDEADYYCGSYDSNSGGIFGSGTRLTVLG
modifications: 3bG4 amino acid sequence
B4: MD9: anti-tau clone, Table 10; SEQ ID NO: 373 (protein)
scFv: QVRLQESGPSLVKSSQTLSLTCTVSGFSLTRESIAWVRQAPGKVPEWLGGVGIDGTSYYSPALKSRLSITRDTSKSQASLSLSSVATEDTAMYYCARNYIDFEYWGPGLLVTVSSEGKSSGASGESKVDDQAVLTQLSSVSGSLGQRISITCSGSSSNVGIYDVSWFQQLPGSGLRTVIYGTNNRPSGVPDRFSGSRSGNTATLTISSLQSEDEAIYYCAAGDSSTIAVFGSGTRLTVLG
modifications: MD9 amino acid sequence
B5: 3aG3: N-terminal anti-tau clone, Table 6; SEQ ID NO: 424 (protein)
chain: QVQLQESGPSLVKPSQTLSLTCTVSGFSLSSNGVGWVRQAPGKVPEWVGDISSSGKAYANPALKSRLSITRDTAKTQVFLSLSSVTTEDTAVYYCVRCRDGGVSYGYDIDYWGPGLLVTVSSEGKSSGASGESKVDDQAVLTQPPSVSGSPGQRVSITCSGSSSNIGGGNYLSWFQQVPGSAPKLLIYGATSRASGVPDRFSGSRSGNTATLTISSLQAEDEADYYCASFDTSSGGIFGAGTRLTVLG
modifications: 3aG3 amino acid sequence
B6: 3bD11: anti-tau clone, Table 10; SEQ ID NO: 637 (protein)
scFv: RVRLQGSGPSLVKPSQTLSLTCTVSGFSFDSYYVGWVRQAPGKALEWLGNIYSTGRAFYNPALKSRLSITRDTSKSQVSLSVSSVTIEDTALYYCVRGSYYHGGGNGMVDFFDYWSPGLLVTVSSEGKSSGASGESKVDDQVVRTQPSSVSGSLGQRVSITCSGSSSNVGYGNYVGWFQQVPGSAPKLLIYAATSRASGVPDRFSGSRSGNTATLTIDSLQAEDEADYYCSSYQRGNTGVFGSGTRLTVLG

Legend:
[1] = tested on: hT40, dGA, dGAE and truncated tau fragments; assay: Binding ELISA / epitope mapping of anti-tau scAbs with truncated tau proteins and 13mer peptides; parameters: species or system human; conditions: for Tau proteins/fragments with positive scAb reactivity: binding ELISA; for Shortest region bound on hT40: incl. 13mer peptides; for Short epitope on hT40: Table 18, '3a' & '3b' series scAbs; for hT40 binding region: second Table 25, mAb format
Protocol: A series of binding ELISA was performed using various truncated versions of the tau protein and 13mer peptide libraries spanning the entire hT40 molecule for mapping the epitopes of anti-tau scAbs (Full list of protein antigens used is given in Table 14). In general, ELISA plates were coated with 1 μg/ml hT40 or dGA or dGAE or other truncated versions of the protein and in the case of biotinylated peptides, plates were coated with 5 μg/ml Streptavidin followed by 1 μg/ml biotinylated peptide. The plates were blocked with 2% MPBS and scAb samples added at desired starting concentrations and double diluted across the plate. Binding was detected using anti-Human C Kappa HRP conjugated secondary antibody and the resulting immunoreaction was developed and absorbance values measured as described above.
Selected E specific scAbs and their specific binding to dGAE is shown below (FIG. 8A-E).
Similarly, dGA binding ‘NS’, ‘S’ and ‘M’ group scAbs were subjected to further antigen binding ELISA using shorter tau proteins and biotinylated 13mer peptides as shown below (FIG. 10A-F) and (FIG. 11A-R).

[2] = molecular target: T1, hT40 (T441, SEQ ID NO: 1) (Homo sapiens, UniProt P10636); assay: Biacore X100 SPR kinetics of scAbs for hT40; type: binding
T1 construct: Full length tau (hT40)
Protocol: Surface plasmon resonance (SPR) is widely regarded as the gold standard for real time measurement of protein-protein interactions such as antibody binding. All SPR experiments were carried out using a Biacore X100 machine and HBS EP+ running buffer (GE Healthcare). A ‘capture’ method was followed for affinity measurements, where an anti-human constant kappa chain (HuCk) antibody was conjugated to the surface of a CM5 sensor chip using an amine coupling kit and scAb molecules were immobilised via their HuCk domain. Amine coupling is a very common approach for immobilising the ligand to the chip surface. […] The capture antibody was diluted 1/100 in 10 mM Sodium acetate buffer pH 5.0 and passed over the activated chip surface for a period of at least 420 s. Final ligand immobilisation levels over 12,000 RU were deemed to be satisfactory.
Following immobilisation, the level of each scAb to be captured was identified using the standard SPR equation with a theoretical RMax of 100 RU. Analyte MW refers to the molecular weight of hT40 or dGA/dGAE molecules, while ligand MW refers to the molecular weight of the scAbs tested. RL is the desired capture level and S refers to the stoichiometric ratio:
The scAb to be tested was added only to flow cell 2 so that flow cell 1 could act as a control to subtract any interaction with the analyte and the chip surface. Both single and multi-cycle runs were utilised using wizards developed in the Biacore X100 control software which are both accepted methods of kinetic analysis (Karlsson, R., et al. Analyzing a kinetic titration series using affinity biosensors (2006) Analytical Biochemistry 349:136-47). The multi-cycle protocol was as follows-Three start-up cycles composed of an initial capture, to the desired level, of the scAb to be tested was performed followed by a 30 s injection of glycine buffer pH 2.0 after each cycle to regenerate the chip surface. […] Following three start-up cycles increasing concentrations (0.15625 nM-100 nM) of the target to be tested were added to the chip surface after the desired scAb capture. The target was added for a 120 s association period and 420 s dissociation period followed by another regeneration, 30 s injection of glycine buffer pH 2.0 in between each cycle.
The single cycle kinetics protocol was similar and utilised the same level of scAb capture. Three start-up cycles were used followed by 5 increasing concentrations of the analyte (6.25 nM-100 nM) for an association period of 120 s followed by a dissociation period of 420 s for each concentration. In single cycle kinetics the regeneration step was performed only after the final analyte concentration was added. Binding responses were analysed in Biacore X100 evaluation software and data fitted to a 1:1 binding model to obtain kinetic and affinity characterisation.

htau40 = molecular target: T2, htau40 (Homo sapiens, UniProt P10636); assay: Biacore X100 SPR kinetics of anti-tau mAbs on immobilised htau40; type: binding
T2 construct: Full length tau (hT40)
Protocol: For anti-tau mAb SPR measurements, htau40 was conjugated to the surface of a CM5 sensor chip using amine coupling as explained previously. Briefly, 2 μg/mL htau40 in 10 mM Sodium acetate buffer (pH 4.0) was passed over the activated chip surface (EDC/NHS) in flow cell 2 for a period for 45 s followed by blocking with 1 M ethanolamine-HCl PH 8.5. Flow cell 1 was set up as reference control and blocked simultaneously. Final immobilisation level of htau40 (Rmax) was approximately 250 RU. Following a minimum of three start-up cycles, increasing concentrations (0.78 nM-25 nM) of the mAb in HBS-EP+ buffer was added at a rate of […] to the chip. The mAb was added for a 120 s association period and 600 s dissociation period followed by a regeneration cycle of 30 s injection of glycine buffer pH 1.5 in between each cycle. Binding responses were analysed in Biacore X100 evaluation software and data fitted to a 1:1 binding model to obtain kinetic and affinity characterisation.
For anti-tau mAb SPR measurements (Biacore X100™) and epitope mapping, the same methodologies described above (see Example 16) were followed. Kinetic rates and equilibrium binding constants of additional anti-tau mAbs and the regions recognised on hT40 are given in the Table 25 below

[3] = Table 26 summary, top scAbs, residues of hT40
[4] = residue numbers of SEQ ID NO: 1 (hT40), CDR Tables 1-11
[5] = Table 23, scAb captured, T441 (hT40) analyte, 1:1 model
[6] = Table 27, mAb format, immobilised htau40
[7] = Table 25, '3a' and '3b' scAbs, hT40
[8] = second Table 25, newly converted mAbs, hT40

T1 sequence (P10636 1-441 isoform P10636-8): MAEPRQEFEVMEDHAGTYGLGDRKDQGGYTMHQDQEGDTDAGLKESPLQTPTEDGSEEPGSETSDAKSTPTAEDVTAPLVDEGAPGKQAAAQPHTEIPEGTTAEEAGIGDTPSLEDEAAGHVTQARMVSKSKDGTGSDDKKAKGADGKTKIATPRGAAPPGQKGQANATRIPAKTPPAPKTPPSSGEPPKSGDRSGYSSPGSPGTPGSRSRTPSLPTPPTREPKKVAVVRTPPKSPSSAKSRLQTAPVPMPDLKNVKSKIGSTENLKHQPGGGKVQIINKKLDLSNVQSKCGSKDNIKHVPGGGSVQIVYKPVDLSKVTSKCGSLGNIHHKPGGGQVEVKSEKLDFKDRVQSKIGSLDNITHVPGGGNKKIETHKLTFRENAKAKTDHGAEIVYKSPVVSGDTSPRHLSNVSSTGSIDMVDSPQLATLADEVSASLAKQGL
T2 sequence (P10636 1-441 isoform P10636-8): as above

| Molecule | Tau proteins/fragments with positive scAb reactivity ([1]; Table 17, 'C' group scAbs) | Shortest region bound on hT40 ([1]; Table 17, 'C' group scAbs) | Epitope [1, 3] | Detection scAb (Epitope) ([1]; Table 28 (LoD table), residues of hT40) | binding region on hT40 ([1]; amino acid residues of hT40) | Epitope [1, 4] | ka [2, 5] | kd [2, 5] | ka (htau40; [6]) | kd (htau40; [6]) | Short epitope on hT40 [1] | hT40 binding region [1] | ka [2, 7] | kd [2, 7] | ka (htau40; [8]) | kd (htau40; [8]) | Binding region hT40 ([1]; second Table 26, own antibodies) | Tau proteins/fragments with positive scAb reactivity ([1]; Table 16, NS, S and M clones) | Shortest region bound on hT40 ([1]; Table 16, NS, S and M clones) |
| --- | --- | --- | --- | --- | --- | --- | --- | --- | --- | --- | --- | --- | --- | --- | --- | --- | --- | --- | --- |
| B1 | hT40, 1-319 | 145-157 | 145-157 | CC7 (145-157) | 145-157 | 145-157 | 295700 M⁻¹ s⁻¹ | 0.0003659 s⁻¹ | 4.576e+06 M⁻¹ s⁻¹ | 0.03164 s⁻¹ |  |  |  |  |  |  |  |  |  |
| B2 |  |  |  |  |  | 1-49 |  |  |  |  | 1-49 | 1-15 | 2.757e+06 M⁻¹ s⁻¹ | 0.009868 s⁻¹ | 3.128e+06 M⁻¹ s⁻¹ | 0.0001522 s⁻¹ |  |  |  |
| B3 |  |  |  |  |  | 1-49 |  |  |  |  | 1-49 | 1-15 | 6.669e+06 M⁻¹ s⁻¹ | 0.05966 s⁻¹ | 4.54e+06 M⁻¹ s⁻¹ | 0.0002964 s⁻¹ | (Binding region hT40 1-15) |  |  |
| B4 |  |  | 373-385 |  |  | 373-385 |  |  |  |  |  | 373-385 |  |  | 66200 M⁻¹ s⁻¹ | 0.001462 s⁻¹ |  | hT40, 297-390 (dGA), 297-391 (dGAE), 369-390, 369-391 | 373-385 |
| B5 |  |  |  |  |  | 1-49 |  |  |  |  | 1-49 | 1-15 | 62940 M⁻¹ s⁻¹ | 0.0003869 s⁻¹ | 1.532e+07 M⁻¹ s⁻¹ | 0.004751 s⁻¹ |  |  |  |
| B6 |  |  |  |  |  | 37-49 |  |  |  |  |  | 37-49 |  |  | 2.671e+06 M⁻¹ s⁻¹ | 0.003979 s⁻¹ |  |  |  |

From US20250355001A1, “METHOD FOR DETECTING A TAU PROTEIN FRAGMENT IN A SAMPLE” (GTINVENT LIMITED, priority 2022, published 2025)
